According to patent US6649364:

Assays:
[1] = target: α-actin purified from rabbit skeletal muscle, globular (G-actin) form (UniProt P68135)
[2] = target: DNase I (Sigma, St. Louis, Mo.); assay: cell-based or functional assay

Substance | DNase I digestion of plasmid DNA (agarose gel) [1] | DNase I digestion of plasmid DNA (agarose gel): level of inhibition against diluted intact actin [2] | DNase I digestion of plasmid DNA (agarose gel): reduction in DNase I inhibition [2]
DNase I (Sigma, St. Louis, Mo.) | preincubation of DNase I with intact actin (1.5 µg) for 5 minutes markedly reduced its ability to digest the plasmid | – | –
actin cleaved for 90 minutes by ICE | – | 5 fold | 80%
